Results from PMC11395145, “The Archetypal Gamma-Core Motif of Antimicrobial Cys-Rich Peptides Inhibits H^+-ATPases in Target Pathogens” (International Journal of Molecular Sciences, 2024).

Key:
[1] = test system: Candida albicans ATCC 10231; assay: Microbicidal (spread-plate cell viability) assay, candidacidal activity; format: cell-based
Method: (§1) First, we tested the antimicrobial activity of Kal-1 and a shorter Kal-1-derived peptide (Kdp15), both containing the complete γ-core signature of human lactoferrin, against C. albicans and P. aeruginosa. Microbicidal (cidal) activity was determined after 90 min of incubation (37 °C; pH 7.4) with a range of concentrations of each hLf-derived peptide.
(§2) Figure 1 Cell viability and membrane permeabilization assays. C. albicans or P. aeruginosa (10^6 cells/mL) were incubated (90 min, 37 °C) with each peptide/protein at the indicated concentrations. Aliquots were plated on SDA or […], and colonies were counted after 24–48 h (C. albicans) or 24 h (P. aeruginosa). At each point, samples were stained with propidium iodide (PI) and intracellular PI incorporation, indicative of membrane permeabilization, was quantified by flow cytometry. The relative cell viability (blue lines) and cellular permeabilization (red lines) were calculated as the percentage of untreated cells. Human lactoferrin (hLf) and the peptide Lfpep were used as negative and positive controls of cellular permeabilization, respectively.
Microbial susceptibility to the peptides was determined in a spread-plate assay as described previously. Briefly, two-fold serially diluted peptides were incubated (37 °C) with approximately 10^6 cells/mL in Tris buffer (10 mM Tris-HCl, pH 7.4). After 90 min of incubation with the peptides, aliquots were removed and plated in duplicate on an appropriate agar plate for each species (SDA for C. albicans, TSA for P. aeruginosa). The plates were incubated for 24–48 h at 30 °C (C. albicans) or 24 h at 37 °C (P. aeruginosa) for enumeration. The cell viability values, expressed as colony forming units (CFUs), were determined relative to incubation without added peptides and represent the mean ± standard deviation (±SD) of at least three independent determinations. For inhibition assays, the cell suspensions were preincubated (15 min at 37 °C) with the corresponding inhibitors before the addition of peptides. […]

C. albicans cells [2] = assay: Cell membrane permeability assay (propidium iodide, flow cytometry); format: cell-based, Candida albicans; details: 90 min, 37 °C, range of concentrations, PI 9 μM
Method: (§3) To determine whether Kal-1 and Kdp15 exert a permeabilizing effect on fungal or bacterial membranes, the cellular influx of the fluorescent nucleic-acid-binding dye propidium iodide (PI) was assessed. As PI itself cannot permeate through an intact phospholipid bilayer, only permeabilized cells take up PI, resulting in DNA intercalation and fluorescence.
(§4) Flow cytometry was used to assess the ability of peptides to permeabilize plasma membranes of cells in incorporation of the DNA intercalating dye propidium iodide (PI). C. albicans or P. aeruginosa cells (10^6 cells/mL) in Tris buffer were incubated with two-fold serially diluted peptides for 90 min at 37 °C and subsequently reincubated with PI (9 μM, final concentration) for 5 min. The suspensions were centrifuged at 1100× g for 10 min and subsequently washed with Tris buffer to remove any unbound PI. The peptide Lfpep was used to disrupt the cytoplasmic membrane (positive control). Cell fluorescence was monitored using a Cytomics FC500 Flow Cytometer (Beckman Coulter Life Sciences, Indianapolis, IN, USA). The PI fluorescence was excited at a wavelength of 488 nm and emission was registered at 610 nm. For each treatment, 20,000 events were measured. Data were acquired and analyzed using CytExpert 2.1 software. Results were expressed as the percentage of PI-positive cells with respect to the unstained cells (control). […]

P. aeruginosa cells [3] = assay: Oxygen consumption measurement (Clark-type electrode); format: cell-based, Pseudomonas aeruginosa; details: 5 × 10^6 cells/mL, peptides at IC50, piericidin A 32 μM, at least 30 min, 25 °C
Method: (§5) Figure 3 Effect of cellular respiration on the microbicidal activity of hLf γ-core-containing peptides. (A,C) Oxygen consumption was measured in C. albicans and P. aeruginosa cellular suspensions in the absence (control) or the presence of kaliocin-1 (Kal-1), Kdp15, or human lactoferrin (hLf), and piericidin A (positive control). (B,D) Effect of cellular respiration on the microbicidal activity of hLf γ-core-containing peptides. Cells (10^6 cells/mL) were pre-incubated (15 min, 37 °C) with 32 μM piericidin A and incubated for 90 min at 37 °C with the peptides hLf or BM2. The cell viability was determined by means of the plate counting method. The results are the mean ± SD from duplicates of at least three independent experiments. * p < 0.05, ** p < 0.01, and *** p < 0.001 were used.
(§6) C. albicans or P. aeruginosa cells were grown to the mid-logarithmic phase, washed twice in Tris buffer, and resuspended in the same buffer, as described in [9, 10]. Briefly, cells (5 × 10^6 cells/mL) were pre-incubated for 15 min at 37 °C with the peptides (IC50). […] Oxygen consumption was measured using a Clark-type oxygen electrode (Dual digital-model 20, Rank Brothers Ltd., Cambridge, UK) in a closed jacketed chamber maintained at 25 °C. […] The viability of the cells was determined at 30 min by removing aliquots from the oxygen chambers and plating the subsequent dilutions on SDA or TSA plates.

P. aeruginosa cells [4] = assay: Cell membrane permeability assay (propidium iodide, flow cytometry); format: cell-based, Pseudomonas aeruginosa; details: 90 min, 37 °C, range of concentrations, PI 9 μM
Method: as §3, §4

[5] = test system: Pseudomonas aeruginosa 10145 (PAO1); details: used in control assays; cited from earlier work
Method: (§7) First, we tested the antimicrobial activity of Kal-1 and a shorter Kal-1-derived peptide (Kdp15), both containing the complete γ-core signature of human lactoferrin, against C. albicans and P. aeruginosa. Microbicidal (cidal) activity was determined after 90 min of incubation (37 °C; pH 7.4) with a range of concentrations of each hLf-derived peptide. The hLf γ-core-containing peptides were microbicidal in a concentration-dependent way (Figure 1). […] The IC50 es ...

[6] = test system: Candida albicans ATCC 10231; details: used in control assays; cited from earlier work
Method: as §7

C. albicans cells [7] = assay: Oxygen consumption measurement (Clark-type electrode); format: cell-based, Candida albicans; details: 5 × 10^6 cells/mL, peptides at IC50, piericidin A 32 μM, at least 30 min, 25 °C
Method: as §5, §6

[8] = test system: Pseudomonas aeruginosa 10145 (PAO1); assay: Microbicidal (spread-plate cell viability) assay, pseudomonacidal activity; format: cell-based; details: Tris buffer with 50 mM KCl vs without
Method: as §1
as §2, with “Human lactoferrin (hLf) and the peptide Lfpep were used as negative and positive controls of cellular permeabilization, respectively.” left out
Microbial susceptibility to the peptides was determined in a spread-plate assay as described previously. […] The cell viability values, expressed as colony forming units (CFUs), were determined relative to incubation without added peptides and represent the mean ± standard deviation (±SD) of at least three independent determinations. […]

C. albicans cells [9] = assay: Measurement of intracellular ATP (BacTiter-Glo); format: cell-based, Candida albicans; details: C. albicans 10^6 cells/mL, candidacidal concentration, 90 min, 37 °C; BM2 0.25 μM
Method: Total ATP was measured by using the BacTiter-Glo^TM Microbial Cell Viability Assay (Promega Co., Madison, WI, USA) according to the manufacturer’s instructions. […] Aliquots (100 μL) were incubated (90 min at 37 °C) with kaliocin-1, Kdp15, or human lactoferrin and the BM2 peptide (positive control). One hundred microliters of incubation mix was transferred into a 96-well opaque white plate, mixed with an equal volume of the BacTiter-Glo reagent, and incubated for 15 min in the dark. The reagent used a thermostable luciferase to produce luminescence in an ATP-dependent manner. The emitted luminescence was detected by using a Varioskan Flash multimode reader (Thermo Scientific, Waltham, MA, USA) with a 10 s of shaking and 1 s integration time. A calibration curve was prepared for each experiment, with ATP standards ranging from 1 to 1000 nM. For assays performed in the presence of the BM2 peptide, samples were preincubated with 0.25 μM BM2 for 30 min at 37 °C. All the tests were performed in triplicate at least four times.

B1: hLf: Recombinant human apo-lactoferrin, PM H^+-ATPase inhibitor control (protein, UniProt P02788 20-710, looked up)
Lactotransferrin: GRRRSVQWCAVSQPEATKCFQWQRNMRKVRGPPVSCIKRDSPIQCIQAIAENRADAVTLDGGFIYEAGLAPYKLRPVAAEVYGTERQPRTHYYAVAVVKKGGSFQLNELQGLKSCHTGLRRTAGWNVPIGTLRPFLNWTGPPEPIEAAVARFFSASCVPGADKGQFPNLCRLCAGTGENKCAFSSQEPYFSYSGAFKCLRDGAGDVAFIRESTVFEDLSDEAERDEYELLCPDNTRKPVDKFKDCHLARVPSHAVVARSVNGKEDAIWNLLRQAQEKFGKDKSPKFQLFGSPSGQKDLLFKDSAIGFSRVPPRIDSGLYLGSGYFTAIQNLRKSEEEVAARRARVVWCAVGEQELRKCNQWSGLSEGSVTCSSASTTEDCIALVLKGEADAMSLDGGYVYTAGKCGLVPVLAENYKSQQSSDPDPNCVDRPVEGYLAVAVVRRSDTSLTWNSVKGKKSCHTAVDRTAGWNIPMGLLFNQTGSCKFDEYFSQSCAPGSDPRSNLCALCIGDEQGENKCVPNSNERYYGYTGAFRCLAENAGDVAFVKDVTVLQNTDGNNNEAWAKDLKLADFALLCLDGKRKPVTEARSCHLAMAPNHAVVSRMDKVERLKQVLLHQQAKFGRNGSDCPDKFCLFQSETKNLLFNDNTECLARLHGKTTYEKYLGPQYVAGITNLKKCSTSPLLEACEFLRK
modifications: apo form
- IC50 ([1]; 90 min, 37 °C, 10 mM Tris-HCl pH 7.4, 10^6 cells/mL, CFU plating, estimated, read-out: IC50 (concentration that caused 50% reduction in viable counts) against C. albicans): 3000 nM
- effect of high external K^+ on candidacidal activity ([1]; Tris buffer with 50 mM KCl vs without): seemed to protect
- effect of Tok1p K^+ channel block (TEA^+) on candidacidal activity ([1]; cells pre-incubated 15 min with 10 mM TEA^+): less susceptible
- PI fluorescent cells (plasma membrane permeabilization), C. albicans (C. albicans cells [2]): not significantly increased
- oxygen consumption of P. aeruginosa in presence of the substance (P. aeruginosa cells [3]): inability of the native protein hLf to inhibit
- PI fluorescent cells (plasma membrane permeabilization), P. aeruginosa (P. aeruginosa cells [4]): not significantly increased
- previously reported microbicidal concentration against P. aeruginosa [5]: 1 µM
- previously reported microbicidal concentration against C. albicans [6]: 5 µM
- oxygen consumption of C. albicans in presence of the substance (C. albicans cells [7]): inability of the native protein hLf to inhibit
- effect of high external K^+ on pseudomonacidal activity [8]: seemed to protect
- increment in intracellular ATP (iATP) level compared to untreated control (C. albicans cells [9]): ~ 6 fold
